Source: patent US20150344570A1 (published 2015)

B1: GpH7-B3 variant P271_20W/GpL16-k0 (antibody, human IgG1, kappa)
heavy: not shown
light: DIVMTQSPLSLPVTPGEPASISCQASESLVHSNRNTYLHWYLQKPGQSPQLLIYKVSNRFSGVPDRFSGSGSGTDFTLKISRVEAEDVGVYYCSQNTHVPPTFGQGTKVEIERTVAAPSVFIFPPSDEQLKSGTASVVCLLNNFYPREAKVQWKVDNALQSGNSQESVTEQDSKDSTYSLSSTLTLSKADYEKHKVYACEVTHQGLSSPVTKSFNRGEC
notes: also called Ho Ab P271_20W
B2: GpH7-B3 variant S267_03V/GpL16-k0 (antibody, human IgG1, kappa)
heavy: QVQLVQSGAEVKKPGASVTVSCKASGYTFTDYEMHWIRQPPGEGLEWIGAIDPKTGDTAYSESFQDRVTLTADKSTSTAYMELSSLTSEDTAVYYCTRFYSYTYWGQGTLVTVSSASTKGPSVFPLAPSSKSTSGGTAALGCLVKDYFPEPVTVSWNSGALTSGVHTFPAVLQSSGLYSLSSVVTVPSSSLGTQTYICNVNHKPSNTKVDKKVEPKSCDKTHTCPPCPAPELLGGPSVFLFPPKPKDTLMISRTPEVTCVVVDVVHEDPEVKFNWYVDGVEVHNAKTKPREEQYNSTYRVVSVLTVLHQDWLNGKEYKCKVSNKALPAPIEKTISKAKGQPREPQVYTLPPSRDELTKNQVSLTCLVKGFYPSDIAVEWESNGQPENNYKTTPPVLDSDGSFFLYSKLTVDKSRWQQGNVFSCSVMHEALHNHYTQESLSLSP
light: B1 light
notes: also called Ho Ab S267_03V
B3: GpH7-B3 variant S239_19Q/GpL16-k0 (antibody, human IgG1, kappa)
heavy: not shown
light: B1 light
notes: also called Ho Ab S239_19Q
B4: GpH7-B3 variant S239_14T/GpL16-k0 (antibody, human IgG1, kappa)
heavy: not shown
light: B1 light
notes: also called Ho Ab S239_14T
B5: GpH7-B3 variant S239_18N/GpL16-k0 (antibody, human IgG1, kappa)
heavy: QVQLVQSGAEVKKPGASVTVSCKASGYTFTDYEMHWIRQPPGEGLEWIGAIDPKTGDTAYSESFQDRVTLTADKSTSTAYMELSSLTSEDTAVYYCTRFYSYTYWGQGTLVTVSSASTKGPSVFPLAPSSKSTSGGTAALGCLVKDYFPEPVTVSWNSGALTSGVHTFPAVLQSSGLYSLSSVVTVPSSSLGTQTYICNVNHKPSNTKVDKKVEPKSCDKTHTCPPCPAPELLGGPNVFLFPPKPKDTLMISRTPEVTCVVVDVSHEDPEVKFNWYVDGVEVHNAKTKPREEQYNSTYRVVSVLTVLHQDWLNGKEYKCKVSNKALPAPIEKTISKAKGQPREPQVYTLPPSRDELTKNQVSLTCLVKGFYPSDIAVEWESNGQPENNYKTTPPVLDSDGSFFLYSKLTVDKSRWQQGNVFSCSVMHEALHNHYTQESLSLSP
light: B1 light
notes: also called Ho Ab S239_18N
B6: GpH7-B3 variant S267_08L/GpL16-k0 (antibody, human IgG1, kappa)
heavy: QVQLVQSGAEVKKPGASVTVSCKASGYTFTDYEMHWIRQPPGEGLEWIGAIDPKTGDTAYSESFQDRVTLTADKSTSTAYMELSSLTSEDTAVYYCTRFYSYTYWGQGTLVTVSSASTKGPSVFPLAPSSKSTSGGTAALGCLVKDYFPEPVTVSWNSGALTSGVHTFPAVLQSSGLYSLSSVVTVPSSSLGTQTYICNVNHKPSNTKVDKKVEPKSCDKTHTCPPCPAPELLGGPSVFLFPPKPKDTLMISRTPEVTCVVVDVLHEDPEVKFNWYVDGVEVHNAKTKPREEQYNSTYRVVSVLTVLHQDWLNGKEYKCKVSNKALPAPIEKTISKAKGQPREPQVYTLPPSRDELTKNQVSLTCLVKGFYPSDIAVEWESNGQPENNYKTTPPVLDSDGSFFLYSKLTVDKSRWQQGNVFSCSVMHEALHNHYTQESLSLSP
light: B1 light
notes: also called Ho Ab S267_08L
B7: GpH7-B3 variant S298_01G/GpL16-k0 (antibody, human IgG1, kappa)
heavy: not shown
light: B1 light
notes: also called Ho Ab S298_01G
B8: GpH7-B3 variant Q295_04F/GpL16-k0 (antibody, human IgG1, kappa)
heavy: not shown
light: B1 light
notes: also called Ho Ab Q295_04F
B9: GpH7-B3 variant S239_09D/GpL16-k0 (antibody, human IgG1, kappa)
heavy: not shown
light: B1 light
notes: also called Ho Ab S239_09D; GpH7-B3-06-09D/GpL16-k0
B10: GpH7-B3 variant Q295_05P/GpL16-k0 (antibody, human IgG1, kappa)
heavy: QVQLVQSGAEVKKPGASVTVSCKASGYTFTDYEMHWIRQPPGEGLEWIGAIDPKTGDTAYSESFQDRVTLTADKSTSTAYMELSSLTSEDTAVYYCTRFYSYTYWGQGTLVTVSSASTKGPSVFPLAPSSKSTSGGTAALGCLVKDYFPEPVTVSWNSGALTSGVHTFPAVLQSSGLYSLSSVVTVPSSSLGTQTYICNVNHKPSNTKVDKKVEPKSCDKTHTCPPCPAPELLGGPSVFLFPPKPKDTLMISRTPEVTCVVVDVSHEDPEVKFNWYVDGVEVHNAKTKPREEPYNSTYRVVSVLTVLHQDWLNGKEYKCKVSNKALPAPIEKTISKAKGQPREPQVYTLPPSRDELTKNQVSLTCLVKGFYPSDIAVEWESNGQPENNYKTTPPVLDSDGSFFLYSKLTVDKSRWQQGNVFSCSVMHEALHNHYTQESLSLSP
light: B1 light
notes: also called Ho Ab Q295_05P
B11: GpH7-B3 variant Q295_13S/GpL16-k0 (antibody, human IgG1, kappa)
heavy: not shown
light: B1 light
notes: also called Ho Ab Q295_13S
B12: GpH7-B3 variant Q295_08L/GpL16-k0 (antibody, human IgG1, kappa)
heavy: not shown
light: B1 light
notes: also called Ho Ab Q295_08L
B13: GpH7-B3 variant Q295_18N/GpL16-k0 (antibody, human IgG1, kappa)
heavy: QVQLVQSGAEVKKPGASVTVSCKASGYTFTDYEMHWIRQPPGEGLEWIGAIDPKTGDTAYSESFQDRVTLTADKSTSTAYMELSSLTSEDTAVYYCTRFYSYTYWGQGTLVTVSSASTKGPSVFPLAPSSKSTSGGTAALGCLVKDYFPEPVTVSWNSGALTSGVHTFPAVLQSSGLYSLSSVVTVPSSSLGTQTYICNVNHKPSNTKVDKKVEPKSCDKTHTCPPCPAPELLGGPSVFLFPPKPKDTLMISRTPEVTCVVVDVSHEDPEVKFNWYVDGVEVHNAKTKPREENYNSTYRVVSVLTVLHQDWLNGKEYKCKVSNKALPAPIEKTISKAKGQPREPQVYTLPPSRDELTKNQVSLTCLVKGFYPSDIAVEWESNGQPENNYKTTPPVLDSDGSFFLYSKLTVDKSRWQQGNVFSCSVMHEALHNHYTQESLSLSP
light: B1 light
notes: also called Ho Ab Q295_18N
B14: GpH7-B3 variant S267_16H/GpL16-k0 (antibody, human IgG1, kappa)
heavy: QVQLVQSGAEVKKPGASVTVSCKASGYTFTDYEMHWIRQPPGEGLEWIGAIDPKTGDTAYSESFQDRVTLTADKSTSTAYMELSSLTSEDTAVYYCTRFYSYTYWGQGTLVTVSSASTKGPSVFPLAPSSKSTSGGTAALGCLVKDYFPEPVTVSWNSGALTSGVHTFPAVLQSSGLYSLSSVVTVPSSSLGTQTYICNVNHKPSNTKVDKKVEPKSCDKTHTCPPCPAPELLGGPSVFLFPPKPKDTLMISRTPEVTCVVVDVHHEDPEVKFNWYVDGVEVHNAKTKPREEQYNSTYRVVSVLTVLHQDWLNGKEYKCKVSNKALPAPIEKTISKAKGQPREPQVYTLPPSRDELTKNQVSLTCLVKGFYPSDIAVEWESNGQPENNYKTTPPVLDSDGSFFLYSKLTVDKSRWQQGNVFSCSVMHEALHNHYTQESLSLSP
light: B1 light
notes: also called Ho Ab S267_16H
B15: GpH7-B3 variant S298_02A/GpL16-k0 (antibody, human IgG1, kappa)
heavy: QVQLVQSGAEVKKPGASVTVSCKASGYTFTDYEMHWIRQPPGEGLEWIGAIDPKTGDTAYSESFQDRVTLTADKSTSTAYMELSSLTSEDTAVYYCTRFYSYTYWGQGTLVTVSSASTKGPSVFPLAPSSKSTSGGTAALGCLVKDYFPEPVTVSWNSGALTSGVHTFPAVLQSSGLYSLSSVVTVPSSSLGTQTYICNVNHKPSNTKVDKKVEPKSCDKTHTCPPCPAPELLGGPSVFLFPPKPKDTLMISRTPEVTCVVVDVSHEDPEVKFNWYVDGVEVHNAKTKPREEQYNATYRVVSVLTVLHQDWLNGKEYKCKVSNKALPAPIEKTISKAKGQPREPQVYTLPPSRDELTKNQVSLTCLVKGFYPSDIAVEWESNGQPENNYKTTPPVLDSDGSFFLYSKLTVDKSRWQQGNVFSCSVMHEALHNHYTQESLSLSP
light: B1 light
notes: also called Ho Ab S298_02A
B16: GpH7-B3 variant Q295_07I/GpL16-k0 (antibody, human IgG1, kappa)
heavy: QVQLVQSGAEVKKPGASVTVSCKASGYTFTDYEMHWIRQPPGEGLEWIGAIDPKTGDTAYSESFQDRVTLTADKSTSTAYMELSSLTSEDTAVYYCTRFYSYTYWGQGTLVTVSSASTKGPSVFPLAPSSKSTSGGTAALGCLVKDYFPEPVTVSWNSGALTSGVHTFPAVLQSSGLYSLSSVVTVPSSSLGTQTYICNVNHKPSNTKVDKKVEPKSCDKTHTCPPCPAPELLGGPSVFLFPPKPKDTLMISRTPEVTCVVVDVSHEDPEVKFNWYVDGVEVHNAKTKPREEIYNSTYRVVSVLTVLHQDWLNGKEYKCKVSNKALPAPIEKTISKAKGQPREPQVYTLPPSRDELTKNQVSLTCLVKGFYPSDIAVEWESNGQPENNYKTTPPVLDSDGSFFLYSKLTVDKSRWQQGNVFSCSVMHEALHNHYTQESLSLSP
light: B1 light
notes: also called Ho Ab Q295_07I
B17: GpH7-B3 variant Q295_03V/GpL16-k0 (antibody, human IgG1, kappa)
heavy: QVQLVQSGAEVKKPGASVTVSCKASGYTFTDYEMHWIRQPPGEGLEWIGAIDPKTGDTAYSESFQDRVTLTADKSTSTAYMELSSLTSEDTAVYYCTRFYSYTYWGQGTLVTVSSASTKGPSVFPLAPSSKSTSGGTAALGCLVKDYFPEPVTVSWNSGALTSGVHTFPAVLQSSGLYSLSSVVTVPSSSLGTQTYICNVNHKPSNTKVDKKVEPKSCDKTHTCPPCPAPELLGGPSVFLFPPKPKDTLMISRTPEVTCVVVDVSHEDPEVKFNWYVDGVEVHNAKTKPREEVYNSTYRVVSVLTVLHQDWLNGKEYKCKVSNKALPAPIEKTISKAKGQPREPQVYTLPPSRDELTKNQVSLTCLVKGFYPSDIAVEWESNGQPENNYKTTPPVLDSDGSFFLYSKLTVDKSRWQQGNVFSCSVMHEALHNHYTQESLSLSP
light: B1 light
notes: also called Ho Ab Q295_03V
B18: GpH7-B3 variant S267_02A/GpL16-k0 (antibody, human IgG1, kappa)
heavy: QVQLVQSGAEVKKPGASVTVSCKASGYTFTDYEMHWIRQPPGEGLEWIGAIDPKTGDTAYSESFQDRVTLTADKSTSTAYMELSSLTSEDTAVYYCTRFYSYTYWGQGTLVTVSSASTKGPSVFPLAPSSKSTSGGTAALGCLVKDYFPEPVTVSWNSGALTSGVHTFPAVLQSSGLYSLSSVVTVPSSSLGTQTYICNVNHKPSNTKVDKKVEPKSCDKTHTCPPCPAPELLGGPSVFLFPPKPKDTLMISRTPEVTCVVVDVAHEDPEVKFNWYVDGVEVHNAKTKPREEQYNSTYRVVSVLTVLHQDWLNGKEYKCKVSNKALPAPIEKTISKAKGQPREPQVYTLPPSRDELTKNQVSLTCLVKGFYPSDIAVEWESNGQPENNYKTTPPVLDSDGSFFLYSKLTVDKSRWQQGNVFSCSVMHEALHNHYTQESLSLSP
light: B1 light
notes: also called Ho Ab S267_02A
B19: GpH7-B3 variant S267_09D/GpL16-k0 (antibody, human IgG1, kappa)
heavy: not shown
light: B1 light
notes: also called Ho Ab S267_09D
B20: GpH7-B3 variant S267_01G/GpL16-k0 (antibody, human IgG1, kappa)
heavy: not shown
light: B1 light
notes: also called Ho Ab S267_01G
B21: GpH7-B3 variant S239_01G/GpL16-k0 (antibody, human IgG1, kappa)
heavy: not shown
light: B1 light
notes: also called Ho Ab S239_01G
B22: GpH7-B3 variant Q295_02A/GpL16-k0 (antibody, human IgG1, kappa)
heavy: not shown
light: B1 light
notes: also called Ho Ab Q295_02A
B23: GpH7-B3 variant Q295_14T/GpL16-k0 (antibody, human IgG1, kappa)
heavy: not shown
light: B1 light
notes: also called Ho Ab Q295_14T

Molecular target: T1, FcγRIa (human, UniProt P12314 16-292)
T1 construct: extracellular domain; Soluble extracellular domain expressed in FreeStyle293 cells, used as analyte in Biacore; also called FcgRI; 1a; not shown: His tag attached to the C terminus
T1 sequence (P12314 16-292): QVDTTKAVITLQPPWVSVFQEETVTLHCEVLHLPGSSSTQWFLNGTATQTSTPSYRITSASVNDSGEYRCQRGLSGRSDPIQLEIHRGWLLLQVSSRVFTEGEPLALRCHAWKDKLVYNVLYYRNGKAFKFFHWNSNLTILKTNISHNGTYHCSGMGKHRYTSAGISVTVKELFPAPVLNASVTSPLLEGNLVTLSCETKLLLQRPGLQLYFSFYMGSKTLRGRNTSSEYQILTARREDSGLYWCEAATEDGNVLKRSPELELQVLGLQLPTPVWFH
Assay: SPR (Biacore); Ho Ab vs HoCon Ab GpH7-B3/GpL16-k0
Experimental: Analysis of interaction between objective antibody and the FcγR was carried out using Biacore T100 (GE Healthcare). HBS-EP+ (GE Healthcare) was used as the running buffer, and the measurement temperature was set to 25° C. Chips produced by immobilizing the antigen peptide by the amine coupling method to a Series S Sencor Chip CM5 (GE Healthcare), or alternatively, chips produced by allowing preliminarily biotinylated antigen peptides to interact with and immobilize onto a Series S Sensor Chip SA (certified) (GE Healthcare) were used. Antibodies of interest were captured onto an antigen peptide-immobilized chip, and allowed to interact to each FcγR diluted with running buffer. To regenerate and repeatedly use the chip, the antibodies captured on the chip were washed off by reacting 10 mM glycine-HCl, pH 1.5.

Row | Binder | Ho/Con_1a
1 | B1 | 102 relative binding, control = 100
2 | B2 | 102 relative binding, control = 100
3 | B3 | 93.4 relative binding, control = 100
4 | B4 | 101 relative binding, control = 100
5 | B5 | 97.9 relative binding, control = 100
6 | B6 | 99.9 relative binding, control = 100
7 | B7 | 103 relative binding, control = 100
8 | B8 | 100 relative binding, control = 100
9 | B9 | 101 relative binding, control = 100
10 | B10 | 101 relative binding, control = 100
11 | B11 | 101 relative binding, control = 100
12 | B12 | 103 relative binding, control = 100
13 | B13 | 101 relative binding, control = 100
14 | B14 | 98.2 relative binding, control = 100
15 | B15 | 106 relative binding, control = 100
16 | B16 | 101 relative binding, control = 100
17 | B17 | 102 relative binding, control = 100
18 | B18 | 108 relative binding, control = 100
19 | B19 | 106 relative binding, control = 100
20 | B20 | 102 relative binding, control = 100
21 | B21 | 101 relative binding, control = 100
22 | B22 | 104 relative binding, control = 100
23 | B23 | 102 relative binding, control = 100
